Measured values: patent US10344077

Key:
[1] = biological target: SSA; assay: AtheNA, Ab 6.25 ug/ml
[2] = biological target: T1, Centromere B (UniProt P07199); assay: AtheNA, Ab 6.25 ug/ml
T1 sequence (looked up): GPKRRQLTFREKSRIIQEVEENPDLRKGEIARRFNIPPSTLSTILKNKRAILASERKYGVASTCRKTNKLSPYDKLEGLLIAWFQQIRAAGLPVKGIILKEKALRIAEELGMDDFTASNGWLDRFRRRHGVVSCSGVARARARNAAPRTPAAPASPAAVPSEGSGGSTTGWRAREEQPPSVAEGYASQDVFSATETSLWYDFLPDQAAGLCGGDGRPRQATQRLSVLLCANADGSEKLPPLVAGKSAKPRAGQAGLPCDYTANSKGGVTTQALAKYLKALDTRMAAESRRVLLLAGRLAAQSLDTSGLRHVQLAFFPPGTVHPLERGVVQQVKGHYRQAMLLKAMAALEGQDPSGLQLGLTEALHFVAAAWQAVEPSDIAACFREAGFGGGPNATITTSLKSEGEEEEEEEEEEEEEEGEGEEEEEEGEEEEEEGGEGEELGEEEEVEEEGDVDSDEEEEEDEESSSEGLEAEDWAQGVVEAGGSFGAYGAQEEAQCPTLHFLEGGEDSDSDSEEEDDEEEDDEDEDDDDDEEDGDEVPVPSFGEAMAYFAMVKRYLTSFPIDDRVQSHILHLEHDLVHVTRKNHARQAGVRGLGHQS

[3] = biological target: Sm (Smith antigen); assay: AtheNA, Ab 6.25 ug/ml
[4] = biological target: Histones; assay: AtheNA, Ab 6.25 ug/ml
[5] = biological target: T2, Jo-1 (UniProt P12081); assay: AtheNA, Ab 6.25 ug/ml
T2 sequence (looked up): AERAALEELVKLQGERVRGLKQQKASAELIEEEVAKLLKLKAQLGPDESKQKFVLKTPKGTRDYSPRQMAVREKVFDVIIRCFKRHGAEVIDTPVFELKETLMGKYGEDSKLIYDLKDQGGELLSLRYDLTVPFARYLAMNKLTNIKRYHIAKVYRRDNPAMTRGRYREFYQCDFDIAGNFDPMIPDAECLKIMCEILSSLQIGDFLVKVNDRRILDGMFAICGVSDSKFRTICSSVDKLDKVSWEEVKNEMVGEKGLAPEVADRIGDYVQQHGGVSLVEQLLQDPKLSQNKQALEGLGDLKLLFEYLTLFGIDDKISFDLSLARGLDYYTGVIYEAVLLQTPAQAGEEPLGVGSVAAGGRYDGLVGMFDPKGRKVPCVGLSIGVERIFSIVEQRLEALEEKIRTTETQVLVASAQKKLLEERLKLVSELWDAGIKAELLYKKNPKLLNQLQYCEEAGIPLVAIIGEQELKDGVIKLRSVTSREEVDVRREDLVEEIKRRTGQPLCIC

[6] = biological target: Scl-70 (UniProt P11387); assay: AtheNA, Ab 6.25 ug/ml
[7] = biological target: SSB (UniProt P05455); assay: AtheNA, Ab 6.25 ug/ml
[8] = biological target: RNP (ribonucleoprotein); assay: AtheNA, Ab 6.25 ug/ml
[9] = biological target: SSA; assay: AtheNA, Ab 25 ug/ml
[10] = biological target: T1, Centromere B; assay: AtheNA, Ab 25 ug/ml
[11] = biological target: Sm (Smith antigen); assay: AtheNA, Ab 25 ug/ml
[12] = biological target: Histones; assay: AtheNA, Ab 25 ug/ml
[13] = biological target: T2, Jo-1; assay: AtheNA, Ab 25 ug/ml
[14] = biological target: SSB (UniProt P05455); assay: AtheNA, Ab 25 ug/ml
[15] = biological target: RNP (ribonucleoprotein); assay: AtheNA, Ab 25 ug/ml
[16] = biological target: SSA; assay: AtheNA, Ab 25 ug/ml; remark: listed apart in the source
[17] = biological target: T1, Centromere B; assay: AtheNA, Ab 25 ug/ml; remark: listed apart in the source
[18] = biological target: Sm (Smith antigen); assay: AtheNA, Ab 25 ug/ml; remark: listed apart in the source
[19] = biological target: Histones; assay: AtheNA, Ab 25 ug/ml; remark: listed apart in the source
[20] = biological target: T2, Jo-1; assay: AtheNA, Ab 25 ug/ml; remark: listed apart in the source
[21] = biological target: Scl-70 (UniProt P11387); assay: AtheNA, Ab 25 ug/ml
[22] = biological target: SSB (UniProt P05455); assay: AtheNA, Ab 25 ug/ml; remark: listed apart in the source
[23] = biological target: RNP (ribonucleoprotein); assay: AtheNA, Ab 25 ug/ml; remark: listed apart in the source
[24] = biological target: SSA; assay: AtheNA, Ab 12.5 ug/ml
[25] = biological target: T1, Centromere B; assay: AtheNA, Ab 12.5 ug/ml
[26] = biological target: Sm (Smith antigen); assay: AtheNA, Ab 12.5 ug/ml
[27] = biological target: Histones; assay: AtheNA, Ab 12.5 ug/ml
[28] = biological target: T2, Jo-1; assay: AtheNA, Ab 12.5 ug/ml
[29] = biological target: Scl-70 (UniProt P11387); assay: AtheNA, Ab 12.5 ug/ml
[30] = biological target: SSB (UniProt P05455); assay: AtheNA, Ab 12.5 ug/ml
[31] = biological target: RNP (ribonucleoprotein); assay: AtheNA, Ab 12.5 ug/ml
[32] = biological target: Scl-70 (UniProt P11387); assay: AtheNA, Ab 25 ug/ml; remark: listed apart in the source
[33] = biological target: SSA; assay: AtheNA, Ab 50 ug/ml
[34] = biological target: T1, Centromere B; assay: AtheNA, Ab 50 ug/ml
[35] = biological target: Sm (Smith antigen); assay: AtheNA, Ab 50 ug/ml
[36] = biological target: Histones; assay: AtheNA, Ab 50 ug/ml
[37] = biological target: T2, Jo-1; assay: AtheNA, Ab 50 ug/ml
[38] = biological target: Scl-70 (UniProt P11387); assay: AtheNA, Ab 50 ug/ml
[39] = biological target: SSB (UniProt P05455); assay: AtheNA, Ab 50 ug/ml
[40] = biological target: RNP (ribonucleoprotein); assay: AtheNA, Ab 50 ug/ml

Chain of Scl-70 (P11387 2-765 limits assumed): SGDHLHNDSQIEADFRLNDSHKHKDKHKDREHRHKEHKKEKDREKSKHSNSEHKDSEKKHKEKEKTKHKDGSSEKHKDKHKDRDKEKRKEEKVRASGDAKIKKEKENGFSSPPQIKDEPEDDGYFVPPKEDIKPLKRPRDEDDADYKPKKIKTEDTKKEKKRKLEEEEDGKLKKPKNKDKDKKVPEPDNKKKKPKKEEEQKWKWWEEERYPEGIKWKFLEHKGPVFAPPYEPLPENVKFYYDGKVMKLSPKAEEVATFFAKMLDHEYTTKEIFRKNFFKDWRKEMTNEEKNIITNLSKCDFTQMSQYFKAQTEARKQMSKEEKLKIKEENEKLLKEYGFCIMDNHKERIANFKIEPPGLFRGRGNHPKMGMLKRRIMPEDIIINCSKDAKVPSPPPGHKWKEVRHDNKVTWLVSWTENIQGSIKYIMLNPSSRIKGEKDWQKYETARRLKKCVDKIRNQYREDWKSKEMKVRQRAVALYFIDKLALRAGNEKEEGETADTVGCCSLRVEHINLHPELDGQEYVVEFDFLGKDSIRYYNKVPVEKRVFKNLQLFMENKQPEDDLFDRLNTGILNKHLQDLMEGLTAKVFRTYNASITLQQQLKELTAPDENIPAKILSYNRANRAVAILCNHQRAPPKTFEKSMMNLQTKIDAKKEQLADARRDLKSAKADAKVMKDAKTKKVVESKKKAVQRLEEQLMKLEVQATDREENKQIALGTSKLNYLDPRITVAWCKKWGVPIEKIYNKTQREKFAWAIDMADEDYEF
Chain of SSB (P05455 whole entry): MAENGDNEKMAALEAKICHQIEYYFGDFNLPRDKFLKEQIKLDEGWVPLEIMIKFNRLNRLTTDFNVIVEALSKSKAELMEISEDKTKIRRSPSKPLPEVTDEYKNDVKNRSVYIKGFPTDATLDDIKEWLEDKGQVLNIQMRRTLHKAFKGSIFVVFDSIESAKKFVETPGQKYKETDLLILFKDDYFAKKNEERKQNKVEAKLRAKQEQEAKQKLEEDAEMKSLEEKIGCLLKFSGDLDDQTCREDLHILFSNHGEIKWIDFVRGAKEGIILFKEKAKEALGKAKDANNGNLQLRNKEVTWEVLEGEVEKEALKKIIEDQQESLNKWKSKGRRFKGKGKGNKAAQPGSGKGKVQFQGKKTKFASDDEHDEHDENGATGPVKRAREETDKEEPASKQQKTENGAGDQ

An Athena reading (relative luminescence units) [1] of 2, an Athena reading (relative luminescence units) [2] of 2 and an Athena reading (relative luminescence units) [3] of 2 were found for synagis (antibody) in this work. The Athena reading (relative luminescence units) [4] was 3, the Athena reading (relative luminescence units) [5] was 1 and the Athena reading (relative luminescence units) [6] was 2. For the same substance, the Athena reading (relative luminescence units) [7] was 5, the Athena reading (relative luminescence units) [8] was 3 and the Athena reading (relative luminescence units) [9] was 11. It also gave an Athena reading (relative luminescence units) [10] of 2, an Athena reading (relative luminescence units) [11] of 4 and an Athena reading (relative luminescence units) [12] of 2. The Athena reading (relative luminescence units) [13] was 4, the Athena reading (relative luminescence units) [14] was 4 and the Athena reading (relative luminescence units) [15] was 0. For the same substance, the Athena reading (relative luminescence units) [16] was 3, the Athena reading (relative luminescence units) [17] was 4 and the Athena reading (relative luminescence units) [18] was 3. It also gave an Athena reading (relative luminescence units) [19] of 5, an Athena reading (relative luminescence units) [20] of 2 and an Athena reading (relative luminescence units) [21] of 2. For the same substance, the Athena reading (relative luminescence units) [22] was 7, the Athena reading (relative luminescence units) [23] was 4 and the Athena reading (relative luminescence units) [24] was 2. For the same substance, the Athena reading (relative luminescence units) [25] was 2, the Athena reading (relative luminescence units) [26] was 7 and the Athena reading (relative luminescence units) [27] was 3. It also gave an Athena reading (relative luminescence units) [28] of 6, an Athena reading (relative luminescence units) [29] of 3 and an Athena reading (relative luminescence units) [30] of 5. The Athena reading (relative luminescence units) [31] was 3.

An Athena reading (relative luminescence units) [1] of 10, an Athena reading (relative luminescence units) [2] of 2 and an Athena reading (relative luminescence units) [3] of 5 were found for CH235UA/293i (antibody) in this work. For the same substance, the Athena reading (relative luminescence units) [4] was 2, the Athena reading (relative luminescence units) [5] was 3 and the Athena reading (relative luminescence units) [6] was 3. It also gave an Athena reading (relative luminescence units) [7] of 5, an Athena reading (relative luminescence units) [8] of 2 and an Athena reading (relative luminescence units) [9] of 9. It also gave an Athena reading (relative luminescence units) [10] of 3, an Athena reading (relative luminescence units) [11] of 6 and an Athena reading (relative luminescence units) [12] of 3. The Athena reading (relative luminescence units) [13] was 5, the Athena reading (relative luminescence units) [32] was 3 and the Athena reading (relative luminescence units) [14] was 3. The Athena reading (relative luminescence units) [15] was 4, the Athena reading (relative luminescence units) [24] was 9 and the Athena reading (relative luminescence units) [25] was 3. It also gave an Athena reading (relative luminescence units) [26] of 6, an Athena reading (relative luminescence units) [27] of 4 and an Athena reading (relative luminescence units) [28] of 5. The Athena reading (relative luminescence units) [29] was 3, the Athena reading (relative luminescence units) [30] was 4 and the Athena reading (relative luminescence units) [31] was 3.

An Athena reading [33] of 5, an Athena reading [34] of 10 and an Athena reading [35] of 5 were found for DH270IA1 (antibody) in this work. It also gave an Athena reading [36] of 9, an Athena reading [37] of 5 and an Athena reading [38] of 4. It also gave an Athena reading [39] of 6, an Athena reading [40] of 2 and an Athena reading [1] of 5. The Athena reading [2] was 2, the Athena reading [3] was 3 and the Athena reading [4] was 2. For the same substance, the Athena reading [5] was 5, the Athena reading [6] was 2 and the Athena reading [7] was 1. For the same substance, the Athena reading [8] was 2, the Athena reading [16] was 3 and the Athena reading [17] was 5. The Athena reading [18] was 5, the Athena reading [19] was 4 and the Athena reading [20] was 3. For the same substance, the Athena reading [21] was 1, the Athena reading [22] was 6 and the Athena reading [23] was 2. The Athena reading [24] was 3, the Athena reading [25] was 3 and the Athena reading [26] was 5. It also gave an Athena reading [27] of 4, an Athena reading [28] of 6 and an Athena reading [29] of 2. It also gave an Athena reading [30] of 6 and an Athena reading [31] of 3.
